Experimental data from patent US20260209362A1 (VIB VZW, published 2026).
Changes are numbered by the printed parent chain.

B1: 20422-FcDE (Fc fusion)
VHH-Fc chain: QVQLQESGGGLVQPGGSLRLSCTASGSIVSIYNMDWYRQAPGNEREWVASITSSGDPYYDGSAKGRFTISRDNAKMTVYLQMNSLEPEDTAVYFCKVPTEKGNYWGQGTQVTVSSAPELLGGPDVFLFPPKPKDTLMISRTPEVTCVVVDVSHEDPEVKFNWYVDGVEVHNAKTKPREEQYNSTYRVVSVLTVLHQDWLNGKEYKCKVSNKALPAPEEKTISKAKGQPREPQVYTLPPSRDELTKNQVSLTCLVKGFYPSDIAVEWESNGQPENNYKTTPPVLDSDGSFFLYSKLTVDKSRWQQGNVFSCSVMHEALHNHYTQKSLSLSPGK
B2: anti-IL-12Rβ2-VHH-FcDE clone 21062 (Fc fusion)
chain: QVQLQESGGGLVQPGGSLRLSCAASGISSSRLHVGWFRQSPGKEREFVAAISLSGGTQAYTDSVKGRFTISGDNVKNTAYLQMNSLRPEDTAVYYCAARERFIWTWSDLTYDYWGQGTQVTVSSAPELLGGPDVFLFPPKPKDTLMISRTPEVTCVVVDVSHEDPEVKFNWYVDGVEVHNAKTKPREEQYNSTYRVVSVLTVLHQDWLNGKEYKCKVSNKALPAPEEKTISKAKGQPREPQVYTLPPSRDELTKNQVSLTCLVKGFYPSDIAVEWESNGQPENNYKTTPPVLDSDGSFFLYSKLTVDKSRWQQGNVFSCSVMHEALHNHYTQKSLSLSPGK
B3: 20429-FcDE (Fc fusion)
VHH-Fc chain: QVQLQESGGGLVQPGGSLRLSCKASGFTFSTYAMSWVRQAPGKGLEWVSAVNSGGLSTDYADSVEGRFTISRDDAKNMLFLQMNSLKPEDTARYYCAKYEDCSDYMCHRDRAGYWGQGTQVTVSSAPELLGGPDVFLFPPKPKDTLMISRTPEVTCVVVDVSHEDPEVKFNWYVDGVEVHNAKTKPREEQYNSTYRVVSVLTVLHQDWLNGKEYKCKVSNKALPAPEEKTISKAKGQPREPQVYTLPPSRDELTKNQVSLTCLVKGFYPSDIAVEWESNGQPENNYKTTPPVLDSDGSFFLYSKLTVDKSRWQQGNVFSCSVMHEALHNHYTQKSLSLSPGK
B4: anti-IL-12Rβ2-VHH-FcDE clone 21050 (Fc fusion)
chain: QVQLQESGGGLVQAGGSLRLSCAASGRTFNNYAMAWFRQAPGKEREFIAAITRSDTTLYIDSVKGRFTISRDNAKNTVALQMNSLKPEDTAVYYCAAGMPYSYSDYPRDSKYDYWGRGTQVTVSSAPELLGGPDVFLFPPKPKDTLMISRTPEVTCVVVDVSHEDPEVKFNWYVDGVEVHNAKTKPREEQYNSTYRVVSVLTVLHQDWLNGKEYKCKVSNKALPAPEEKTISKAKGQPREPQVYTLPPSRDELTKNQVSLTCLVKGFYPSDIAVEWESNGQPENNYKTTPPVLDSDGSFFLYSKLTVDKSRWQQGNVFSCSVMHEALHNHYTQKSLSLSPGK
B5: anti-IL-12Rβ2-VHH-FcDE clone 21053 (Fc fusion)
chain: QVQLQESGGGLVQAGGSLRLSCAASGRTFSNYAMAWFRQAPGTEREFVAGLSGSGGDTEFYDDSVKGRFAISRDSAKNTVWLQMNSLKPEDTAVYYCAAATHVVVHYGLVRRRGTYDYWGQGTQVTVSSAPELLGGPDVFLFPPKPKDTLMISRTPEVTCVVVDVSHEDPEVKFNWYVDGVEVHNAKTKPREEQYNSTYRVVSVLTVLHQDWLNGKEYKCKVSNKALPAPEEKTISKAKGQPREPQVYTLPPSRDELTKNQVSLTCLVKGFYPSDIAVEWESNGQPENNYKTTPPVLDSDGSFFLYSKLTVDKSRWQQGNVFSCSVMHEALHNHYTQKSLSLSPGK
B6: anti-IL-12Rβ2-VHH-FcDE clone 20438 (Fc fusion)
chain: QVQLQESGGGLVQPGGSLRLSCTASGFAFSTYWMYWIRQSPEKGFEWVSVVNTGGDITYYADSVKGRFTISRDNAKNTLYLQMNSLKPEDTALYYCARDRTTMSYTRTYYRGGQGTQVTVSSAPELLGGPDVFLFPPKPKDTLMISRTPEVTCVVVDVSHEDPEVKFNWYVDGVEVHNAKTKPREEQYNSTYRVVSVLTVLHQDWLNGKEYKCKVSNKALPAPEEKTISKAKGQPREPQVYTLPPSRDELTKNQVSLTCLVKGFYPSDIAVEWESNGQPENNYKTTPPVLDSDGSFFLYSKLTVDKSRWQQGNVFSCSVMHEALHNHYTQKSLSLSPGK
B7: anti-IL-12Rβ2-VHH-FcDE clone 21060 (Fc fusion)
chain: QVQLQESGGGLVQAGGSLSLSCAASGSAFRLNFMGWYRQAPGKQRELVAAINSGGTEIYHDSVKGRFTISRDNADSTVWLQMNSLKPDDTAVYYCAADRGISWSKLAGGMDYWGKGTQVTVSSAPELLGGPDVFLFPPKPKDTLMISRTPEVTCVVVDVSHEDPEVKFNWYVDGVEVHNAKTKPREEQYNSTYRVVSVLTVLHQDWLNGKEYKCKVSNKALPAPEEKTISKAKGQPREPQVYTLPPSRDELTKNQVSLTCLVKGFYPSDIAVEWESNGQPENNYKTTPPVLDSDGSFFLYSKLTVDKSRWQQGNVFSCSVMHEALHNHYTQKSLSLSPGK
B8: anti-IL-12Rβ2-VHH-Fc clone 20432 with a wildtype IgG1 Fc sequence (Fc fusion)
chain: QVQLQESGGGLVQPGGSLRLSCAASGFTFSTSGMHWFRQAPGKGLEWVSSIGATVDNSYYASSVKGRFTISRDNAKNTLYLLMNSLKSEDTAVYYCSKDPTGSSRGQGTQVTVSSAPELLGGPSVFLFPPKPKDTLMISRTPEVTCVVVDVSHEDPEVKFNWYVDGVEVHNAKTKPREEQYNSTYRVVSVLTVLHQDWLNGKEYKCKVSNKALPAPIEKTISKAKGQPREPQVYTLPPSRDELTKNQVSLTCLVKGFYPSDIAVEWESNGQPENNYKTTPPVLDSDGSFFLYSKLTVDKSRWQQGNVFSCSVMHEALHNHYTQKSLSLSPGK
B9: anti-IL-12Rβ2 VHH clone 3CAHM11 (VHH, not shown: small tags and cut ends)
VHH: QVQLQESGGGLVQAGGSLRLSCAASGRTFNNYAMAWFRQAPGKEREFIAAITRSDTTLYIDSVKGRFTISRDNAKNTVALQMNSLKPEDTAVYYCAAGMPYSYSDYPRDSKYDYWGRGTQVTVSS
notes: periplasmic extract
B10: anti-IL-12Rβ2 VHH clone 3CRHM49 (VHH, not shown: small tags and cut ends)
VHH: QVQLQESGGGLVQAGGSLRLSCAASGRTFSNYAMAWFRQAPGTEREFVAGLSGSGGDTAFYDNSVMGRFTISRDSAKNTMWLQINNLKPEDTAVYYCAAATHVVVSYGLVRRRGTYDYWGQGTQVTVSS
notes: periplasmic extract; also called 21058
B11: anti-IL-12Rβ2 VHH clone 3CRHM14 (VHH, not shown: small tags and cut ends)
VHH: B10 VHH with A59E, N63D, M66K, T70A, M80V, I84M, N86S, S106H
notes: periplasmic extract
B12: anti-IL-12Rβ2 VHH clone 3CRHM18 (VHH, not shown: small tags and cut ends)
VHH: B10 VHH with A14D, R112K
notes: periplasmic extract
B13: anti-IL-12Rβ2 VHH clone 3CRHM35 (VHH, not shown: small tags and cut ends)
VHH: B10 VHH with S106N
notes: periplasmic extract; also called 21057

Biological target: T1, human IL-12Rβ2 expressed on cells (human, UniProt Q99665 24-862)
T1 sequence: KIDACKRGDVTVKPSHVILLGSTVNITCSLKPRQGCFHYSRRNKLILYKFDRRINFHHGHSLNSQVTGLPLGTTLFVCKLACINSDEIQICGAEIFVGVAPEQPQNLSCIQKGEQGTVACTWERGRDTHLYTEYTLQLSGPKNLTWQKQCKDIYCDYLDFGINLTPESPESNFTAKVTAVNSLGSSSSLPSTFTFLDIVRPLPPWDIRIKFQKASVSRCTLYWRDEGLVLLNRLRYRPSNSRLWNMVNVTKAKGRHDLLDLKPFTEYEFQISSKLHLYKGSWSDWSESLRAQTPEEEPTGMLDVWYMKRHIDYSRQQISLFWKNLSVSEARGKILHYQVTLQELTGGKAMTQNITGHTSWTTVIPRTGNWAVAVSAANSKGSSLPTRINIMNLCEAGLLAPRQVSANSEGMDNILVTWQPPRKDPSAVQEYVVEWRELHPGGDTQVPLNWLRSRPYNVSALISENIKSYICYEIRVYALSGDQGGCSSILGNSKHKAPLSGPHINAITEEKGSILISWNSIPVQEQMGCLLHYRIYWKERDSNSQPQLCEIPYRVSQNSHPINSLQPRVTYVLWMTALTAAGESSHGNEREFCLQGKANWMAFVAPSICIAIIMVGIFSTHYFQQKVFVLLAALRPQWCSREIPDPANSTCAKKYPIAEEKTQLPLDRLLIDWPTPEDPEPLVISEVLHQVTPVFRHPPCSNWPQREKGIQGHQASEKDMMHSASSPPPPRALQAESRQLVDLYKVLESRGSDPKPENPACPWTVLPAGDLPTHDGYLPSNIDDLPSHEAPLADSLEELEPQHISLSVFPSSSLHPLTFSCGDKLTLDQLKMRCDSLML
Test: cell-based or functional assay

Binder | % Specific Cell Lysis at 0.5 ug/mL [%] | % Specific Cell Lysis at 10 ug/mL [%] | % Specific Cell Lysis at 0.00125 ug/mL [%] | % Specific Cell Lysis at 0.025 ug/mL [%]
B1 | 65.8 | 67.3 | – | –
B2 | 60.9 | 69.5 | 52.7 | –
B3 | 67.7 | 67.3 | 59 | –
B4 | 61.3 | 63.7 | 42.4 | 50.1
B5 | 64.7 | 73.3 | 46.5 | 51.6
B6 | 63.4 | 66.9 | 49.5 | –
B7 | 73.5 | 75.5 | – | 63.9
B8 | – | – | – | 54.3

Biological target: T2, human IL-12Rβ2 (human, UniProt Q99665 24-862)
T2 construct: Expressed on HEK293T cells transiently transfected with a pcDNA3 plasmid (Genscript clone OHu21785); also called hIL-12RB2; IL-12 receptor β2 subunit
T2 sequence: T1 sequence
Test: flow cytometry, P.E. on transfected HEK293T cells

Binder | % cells bound [%] | dMFI
B9 | 37.6 | 784
B10 | 36 | 759
B11 | 35.8 | 689
B12 | 36.7 | 767
B13 | 37.3 | 826

Biological target: T3, mouse IL-12Rβ2 (mouse, UniProt P97378 24-874)
T3 construct: Expressed on HEK293T cells transiently transfected with a pcDNA3 plasmid (Genscript clone OMu01776); also called mIL-12RB2; NP_032380.1
T3 sequence: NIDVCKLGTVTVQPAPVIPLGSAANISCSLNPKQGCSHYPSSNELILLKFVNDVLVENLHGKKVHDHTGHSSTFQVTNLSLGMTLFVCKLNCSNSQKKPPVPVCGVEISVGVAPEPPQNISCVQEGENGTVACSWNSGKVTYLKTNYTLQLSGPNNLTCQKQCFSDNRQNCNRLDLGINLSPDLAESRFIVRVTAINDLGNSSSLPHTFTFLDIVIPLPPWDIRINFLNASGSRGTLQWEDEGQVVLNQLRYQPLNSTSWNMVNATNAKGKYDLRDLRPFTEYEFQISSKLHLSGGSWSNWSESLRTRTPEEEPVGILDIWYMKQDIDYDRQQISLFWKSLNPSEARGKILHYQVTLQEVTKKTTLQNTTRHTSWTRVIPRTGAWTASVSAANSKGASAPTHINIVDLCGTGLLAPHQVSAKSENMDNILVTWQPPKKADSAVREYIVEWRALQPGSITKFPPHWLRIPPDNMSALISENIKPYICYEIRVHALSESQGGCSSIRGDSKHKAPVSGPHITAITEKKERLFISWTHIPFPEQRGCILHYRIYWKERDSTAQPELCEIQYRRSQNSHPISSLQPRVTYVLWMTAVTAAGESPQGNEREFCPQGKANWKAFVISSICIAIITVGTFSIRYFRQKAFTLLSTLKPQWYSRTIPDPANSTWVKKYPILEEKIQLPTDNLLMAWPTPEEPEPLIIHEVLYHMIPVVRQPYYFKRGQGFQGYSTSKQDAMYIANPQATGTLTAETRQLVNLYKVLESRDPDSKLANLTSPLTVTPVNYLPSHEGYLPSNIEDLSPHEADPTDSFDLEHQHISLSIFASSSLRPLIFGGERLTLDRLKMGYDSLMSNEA
Test: flow cytometry, P.E. on transfected HEK293T cells

Binder | % cells bound [%] | dMFI
B9 | 7.51 | 294
B10 | 17.1 | 421
B11 | 18.6 | 412
B12 | 15.3 | 369
B13 | 16 | 425
